Laboratory results taken from article PMC2892007.

Legend:
[1] = biological target: LigA LigAVar10 (Leptospira interrogans) (UniProt Q72MA6); assay: SPR
[2] = biological target: LigA LigAVar11 (Leptospira interrogans) (UniProt Q72MA6); assay: SPR
[3] = biological target: LigA LigAVar12 (Leptospira interrogans) (UniProt Q72MA6); assay: SPR
[4] = biological target: LigA LigAVar13 (Leptospira interrogans) (UniProt Q72MA6); assay: SPR
[5] = biological target: LigA LigAVar7'-8 (Leptospira interrogans) (UniProt Q72MA6); assay: SPR
[6] = biological target: LigA LigAVar10 (Leptospira interrogans) (UniProt Q72MA6); assay: ELISA
[7] = biological target: LigA LigAVar13 (Leptospira interrogans) (UniProt Q72MA6); assay: ELISA
[8] = biological target: Alexa-488 labeled LigBCen2RW1073C (Leptospira; L. interrogans serovar Pomona is the only strain named); assay: other fluorescence titration
[9] = biological target: LigAVar12 (Leptospira; L. interrogans serovar Pomona is the only strain named); assay: SPR
[10] = biological target: LigBCen7'-8 (Leptospira; L. interrogans serovar Pomona is the only strain named); assay: SPR
[11] = biological target: LigBCen9 (Leptospira; L. interrogans serovar Pomona is the only strain named); assay: SPR
[12] = biological target: Gelatin-binding domain of human plasma fibronectin (human); assay: ELISA
[13] = biological target: Gelatin-binding domain of human plasma fibronectin (human); assay: SEC-MALS; mixtures of Lig protein and GBD on Superose 6, 20 mM HEPES, 150 mM NaCl, pH 7.5
[14] = biological target: Gelatin-binding domain of human plasma fibronectin (human); assay: ITC; GBD in the cell (1 ml), Lig protein in the syringe (250 µl), 25 injections of 10 µl, 25°C, Tris buffer with 100 µM CaCl2; independent binding model

Sequence of Fibronectin gelatin binding domain (P02751 306-608): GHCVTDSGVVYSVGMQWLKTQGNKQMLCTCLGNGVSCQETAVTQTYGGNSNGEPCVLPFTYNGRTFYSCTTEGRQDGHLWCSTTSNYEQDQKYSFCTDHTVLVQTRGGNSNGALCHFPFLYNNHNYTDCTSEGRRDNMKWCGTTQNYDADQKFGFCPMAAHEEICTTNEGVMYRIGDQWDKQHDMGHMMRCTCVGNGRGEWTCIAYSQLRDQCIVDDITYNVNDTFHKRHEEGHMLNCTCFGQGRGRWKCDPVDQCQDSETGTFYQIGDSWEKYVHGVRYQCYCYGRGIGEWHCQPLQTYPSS

Substance | Kd [12] | stoichiometry N [13] | 1/n [14] | Kd [14] | dH [14] | stoichiometry N [14] | also measured
Fibronectin gelatin binding domain (from UniProt P02751) |  |  |  |  |  |  | Kd [1]: 4250 nM; Kd [2]: 5040 nM; Kd [3]: 2870 nM; Kd [4]: 10400 nM; Kd [5]: 6680 nM; Kd [6]: 3940 nM; Kd [7]: 11000 nM
Gelatin-binding domain of human plasma fibronectin (domain or fragment) |  |  |  |  |  |  | Kd [8]: 1930 nM; koff [9]: 0.00678 s⁻¹; kon [9]: 2360 M⁻¹ s⁻¹; koff [10]: 0.00963 s⁻¹; kon [10]: 3570 M⁻¹ s⁻¹; koff [11]: 0.00473 s⁻¹; kon [11]: 560 M⁻¹ s⁻¹
LigAVar7'-9 (domain or fragment) | 6580 nM | 0.97 GBD: Lig | 0.98 GBD: Lig | 6110 nM | -29.2 kcal/mol | 1.02 Lig: GBD | 
LigAVar7'-10 (domain or fragment) | 4720 nM | 2 GBD: Lig | 1.96 GBD: Lig | 4350 nM | -25.3 kcal/mol | 0.51 Lig: GBD | 
LigAVar7'-11 (domain or fragment) | 3240 nM | 2.96 GBD: Lig | 2.98 GBD: Lig | 3130 nM | -22.1 kcal/mol | 0.335 Lig: GBD | 
LigAVar7'-12 (domain or fragment) | 2440 nM | 4.04 GBD: Lig | 3.92 GBD: Lig | 2410 nM | -30.8 kcal/mol | 0.255 Lig: GBD | 
LigAVar7'-13 (domain or fragment) | 48 nM | 5.05 GBD: Lig | 4.92 GBD: Lig | 47 nM | -94.9 kcal/mol | 0.203 Lig: GBD | 
LigBCen7'-8 (domain or fragment) |  | 1.01 GBD: Lig | 1.01 GBD: Lig | 2280 nM | -20.4 kcal/mol | 0.985 Lig: GBD | 
LigBCen7'-9 (domain or fragment) | 1390 nM | 2.05 GBD: Lig | 1.92 GBD: Lig | 1310 nM | -21.1 kcal/mol | 0.52 Lig: GBD | 
LigBCen7'-10 (domain or fragment) | 1460 nM | 2 GBD: Lig | 1.96 GBD: Lig | 1350 nM | -26.7 kcal/mol | 0.51 Lig: GBD | 
LigBCen7'-11 (domain or fragment) | 1470 nM | 1.98 GBD: Lig | 2.08 GBD: Lig | 1390 nM | -29 kcal/mol | 0.479 Lig: GBD | 
